Reference: patent publication US20210238260

Biological target: Factor X, P00742
Sequence (P00742 whole entry, looked up): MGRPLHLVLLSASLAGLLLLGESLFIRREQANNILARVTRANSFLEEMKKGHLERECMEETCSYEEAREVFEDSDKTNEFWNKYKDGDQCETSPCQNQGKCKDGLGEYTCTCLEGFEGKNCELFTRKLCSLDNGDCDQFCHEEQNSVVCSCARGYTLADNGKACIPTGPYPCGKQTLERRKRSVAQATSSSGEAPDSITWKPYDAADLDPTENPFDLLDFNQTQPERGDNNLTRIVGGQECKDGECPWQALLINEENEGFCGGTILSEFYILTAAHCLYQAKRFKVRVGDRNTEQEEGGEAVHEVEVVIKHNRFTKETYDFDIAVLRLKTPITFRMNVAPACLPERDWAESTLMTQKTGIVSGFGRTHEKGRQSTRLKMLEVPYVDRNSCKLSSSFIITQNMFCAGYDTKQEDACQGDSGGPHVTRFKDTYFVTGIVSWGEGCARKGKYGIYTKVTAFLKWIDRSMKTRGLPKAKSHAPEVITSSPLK

| Protein | % of WT kcat/KM | KM (FX activation by FIXa in Xase complex with FVIIIa, PC/PS vesicles, Ca2+) | kcat/KM |
| --- | --- | --- | --- |
| FIXa D104N/K106S/R318Y/R338E/T343R/R403E/E410N (protein) chain 1: YNSGKLEEFVQGNLERECMEEKCSFEEAREVFENTERTTEFWKQYVDGDQCESNPCLNGGSCKDDINSYECWCPFGFEGKNCELDVTCNIKNGRCEQFCKNSANNSVVCSCTEGYRLAENQKSCEPAVPFPCGRVSVSQTSKLTR chain 2: VVGGEDAKPGQFPWQVVLNGKVDAFCGGSIVNEKWIVTAAHCVETGVKITVVAGEHNIEETEHTEQKRNVIRIIPHHNYNAAINKYNHDIALLELDEPLVLNSYVTPICIADKEYTNIFLKFGSGYVSGWGRVFHKGYSALVLQYLRVPLVDRATCLESTKFRIYNNMFCAGFHEGGRDSCQGDSGGPHVTEVEGTSFLTGIISWGEECAMKGKYGIYTKVSEYVNWIKNKTKLT | 487% | 0.0266 µM | 2.2e+08 M⁻¹ s⁻¹ |
| FIXa R318Y/R338E/N346Y/R403E/E410N (protein) chain 1: YNSGKLEEFVQGNLERECMEEKCSFEEAREVFENTERTTEFWKQYVDGDQCESNPCLNGGSCKDDINSYECWCPFGFEGKNCELDVTCNIKNGRCEQFCKNSADNKVVCSCTEGYRLAENQKSCEPAVPFPCGRVSVSQTSKLTR chain 2: VVGGEDAKPGQFPWQVVLNGKVDAFCGGSIVNEKWIVTAAHCVETGVKITVVAGEHNIEETEHTEQKRNVIRIIPHHNYNAAINKYNHDIALLELDEPLVLNSYVTPICIADKEYTNIFLKFGSGYVSGWGRVFHKGYSALVLQYLRVPLVDRATCLESTKFTIYYNMFCAGFHEGGRDSCQGDSGGPHVTEVEGTSFLTGIISWGEECAMKGKYGIYTKVSEYVNWIKNKTKLT | 270% | 0.0281 µM | 1.2e+08 M⁻¹ s⁻¹ |
| FIXa R318Y/R338E/T343R/N346Y/R403E/E410N (protein) chain 1: YNSGKLEEFVQGNLERECMEEKCSFEEAREVFENTERTTEFWKQYVDGDQCESNPCLNGGSCKDDINSYECWCPFGFEGKNCELDVTCNIKNGRCEQFCKNSADNKVVCSCTEGYRLAENQKSCEPAVPFPCGRVSVSQTSKLTR chain 2: VVGGEDAKPGQFPWQVVLNGKVDAFCGGSIVNEKWIVTAAHCVETGVKITVVAGEHNIEETEHTEQKRNVIRIIPHHNYNAAINKYNHDIALLELDEPLVLNSYVTPICIADKEYTNIFLKFGSGYVSGWGRVFHKGYSALVLQYLRVPLVDRATCLESTKFRIYYNMFCAGFHEGGRDSCQGDSGGPHVTEVEGTSFLTGIISWGEECAMKGKYGIYTKVSEYVNWIKNKTKLT | 663% | 0.0158 µM | 3.1e+08 M⁻¹ s⁻¹ |
| FIXa R318Y/R338E/T343R/N346D/R403E/E410N (protein) chain 1: YNSGKLEEFVQGNLERECMEEKCSFEEAREVFENTERTTEFWKQYVDGDQCESNPCLNGGSCKDDINSYECWCPFGFEGKNCELDVTCNIKNGRCEQFCKNSADNKVVCSCTEGYRLAENQKSCEPAVPFPCGRVSVSQTSKLTR chain 2: VVGGEDAKPGQFPWQVVLNGKVDAFCGGSIVNEKWIVTAAHCVETGVKITVVAGEHNIEETEHTEQKRNVIRIIPHHNYNAAINKYNHDIALLELDEPLVLNSYVTPICIADKEYTNIFLKFGSGYVSGWGRVFHKGYSALVLQYLRVPLVDRATCLESTKFRIYDNMFCAGFHEGGRDSCQGDSGGPHVTEVEGTSFLTGIISWGEECAMKGKYGIYTKVSEYVNWIKNKTKLT | 177% | 0.067 µM | 8.2e+07 M⁻¹ s⁻¹ |
| FIXa R318Y/R338E/Y345A/R403E/E410N (protein) chain 1: YNSGKLEEFVQGNLERECMEEKCSFEEAREVFENTERTTEFWKQYVDGDQCESNPCLNGGSCKDDINSYECWCPFGFEGKNCELDVTCNIKNGRCEQFCKNSADNKVVCSCTEGYRLAENQKSCEPAVPFPCGRVSVSQTSKLTR chain 2: VVGGEDAKPGQFPWQVVLNGKVDAFCGGSIVNEKWIVTAAHCVETGVKITVVAGEHNIEETEHTEQKRNVIRIIPHHNYNAAINKYNHDIALLELDEPLVLNSYVTPICIADKEYTNIFLKFGSGYVSGWGRVFHKGYSALVLQYLRVPLVDRATCLESTKFTIANNMFCAGFHEGGRDSCQGDSGGPHVTEVEGTSFLTGIISWGEECAMKGKYGIYTKVSEYVNWIKNKTKLT | 180% | 0.0188 µM | 8.3e+07 M⁻¹ s⁻¹ |
| FIXa Y155F/K247N/N249S/R318Y/R338E/R403E (protein) chain 1: YNSGKLEEFVQGNLERECMEEKCSFEEAREVFENTERTTEFWKQYVDGDQCESNPCLNGGSCKDDINSYECWCPFGFEGKNCELDVTCNIKNGRCEQFCKNSADNKVVCSCTEGYRLAENQKSCEPAVPFPCGRVSVSQTSKLTR chain 2: VVGGEDAKPGQFPWQVVLNGKVDAFCGGSIVNEKWIVTAAHCVETGVKITVVAGEHNIEETEHTEQNRSVIRIIPHHNYNAAINKYNHDIALLELDEPLVLNSYVTPICIADKEYTNIFLKFGSGYVSGWGRVFHKGYSALVLQYLRVPLVDRATCLESTKFTIYNNMFCAGFHEGGRDSCQGDSGGPHVTEVEGTSFLTGIISWGEECAMKGKYGIYTKVSEYVNWIKEKTKLT | – | 0.0673 µM | – |
| FIXa K247N/N249S/R318Y/R338E/R403E (protein) chain 1: YNSGKLEEFVQGNLERECMEEKCSFEEAREVFENTERTTEFWKQYVDGDQCESNPCLNGGSCKDDINSYECWCPFGFEGKNCELDVTCNIKNGRCEQFCKNSADNKVVCSCTEGYRLAENQKSCEPAVPFPCGRVSVSQTSKLTR chain 2: VVGGEDAKPGQFPWQVVLNGKVDAFCGGSIVNEKWIVTAAHCVETGVKITVVAGEHNIEETEHTEQNRSVIRIIPHHNYNAAINKYNHDIALLELDEPLVLNSYVTPICIADKEYTNIFLKFGSGYVSGWGRVFHKGYSALVLQYLRVPLVDRATCLESTKFTIYNNMFCAGFHEGGRDSCQGDSGGPHVTEVEGTSFLTGIISWGEECAMKGKYGIYTKVSEYVNWIKEKTKLT | – | 0.0536 µM | – |
| FIXa Y155F/K247N/N249S/R318Y/R403E/E410N (protein) chain 1: YNSGKLEEFVQGNLERECMEEKCSFEEAREVFENTERTTEFWKQYVDGDQCESNPCLNGGSCKDDINSYECWCPFGFEGKNCELDVTCNIKNGRCEQFCKNSADNKVVCSCTEGYRLAENQKSCEPAVPFPCGRVSVSQTSKLTR chain 2: VVGGEDAKPGQFPWQVVLNGKVDAFCGGSIVNEKWIVTAAHCVETGVKITVVAGEHNIEETEHTEQNRSVIRIIPHHNYNAAINKYNHDIALLELDEPLVLNSYVTPICIADKEYTNIFLKFGSGYVSGWGRVFHKGYSALVLQYLRVPLVDRATCLRSTKFTIYNNMFCAGFHEGGRDSCQGDSGGPHVTEVEGTSFLTGIISWGEECAMKGKYGIYTKVSEYVNWIKNKTKLT | – | 0.125 µM | – |
| FIXa K247N/N249S/R318Y/R403E/E410N (protein) chain 1: YNSGKLEEFVQGNLERECMEEKCSFEEAREVFENTERTTEFWKQYVDGDQCESNPCLNGGSCKDDINSYECWCPFGFEGKNCELDVTCNIKNGRCEQFCKNSADNKVVCSCTEGYRLAENQKSCEPAVPFPCGRVSVSQTSKLTR chain 2: VVGGEDAKPGQFPWQVVLNGKVDAFCGGSIVNEKWIVTAAHCVETGVKITVVAGEHNIEETEHTEQNRSVIRIIPHHNYNAAINKYNHDIALLELDEPLVLNSYVTPICIADKEYTNIFLKFGSGYVSGWGRVFHKGYSALVLQYLRVPLVDRATCLRSTKFTIYNNMFCAGFHEGGRDSCQGDSGGPHVTEVEGTSFLTGIISWGEECAMKGKYGIYTKVSEYVNWIKNKTKLT | – | 0.111 µM | – |
| FIXa Y155F/K247N/N249S/R338E/R403E/E410N (protein) chain 1: YNSGKLEEFVQGNLERECMEEKCSFEEAREVFENTERTTEFWKQYVDGDQCESNPCLNGGSCKDDINSYECWCPFGFEGKNCELDVTCNIKNGRCEQFCKNSADNKVVCSCTEGYRLAENQKSCEPAVPFPCGRVSVSQTSKLTR chain 2: VVGGEDAKPGQFPWQVVLNGKVDAFCGGSIVNEKWIVTAAHCVETGVKITVVAGEHNIEETEHTEQNRSVIRIIPHHNYNAAINKYNHDIALLELDEPLVLNSYVTPICIADKEYTNIFLKFGSGYVSGWGRVFHKGRSALVLQYLRVPLVDRATCLESTKFTIYNNMFCAGFHEGGRDSCQGDSGGPHVTEVEGTSFLTGIISWGEECAMKGKYGIYTKVSEYVNWIKNKTKLT | – | 0.0487 µM | – |
| FIXa K247N/N249S/R338E/R403E/E410N (protein) chain 1: YNSGKLEEFVQGNLERECMEEKCSFEEAREVFENTERTTEFWKQYVDGDQCESNPCLNGGSCKDDINSYECWCPFGFEGKNCELDVTCNIKNGRCEQFCKNSADNKVVCSCTEGYRLAENQKSCEPAVPFPCGRVSVSQTSKLTR chain 2: VVGGEDAKPGQFPWQVVLNGKVDAFCGGSIVNEKWIVTAAHCVETGVKITVVAGEHNIEETEHTEQNRSVIRIIPHHNYNAAINKYNHDIALLELDEPLVLNSYVTPICIADKEYTNIFLKFGSGYVSGWGRVFHKGRSALVLQYLRVPLVDRATCLESTKFTIYNNMFCAGFHEGGRDSCQGDSGGPHVTEVEGTSFLTGIISWGEECAMKGKYGIYTKVSEYVNWIKNKTKLT | – | 0.025 µM | – |
| FIXa R318Y/R338E/T343R/R403E (protein) chain 1: YNSGKLEEFVQGNLERECMEEKCSFEEAREVFENTERTTEFWKQYVDGDQCESNPCLNGGSCKDDINSYECWCPFGFEGKNCELDVTCNIKNGRCEQFCKNSADNKVVCSCTEGYRLAENQKSCEPAVPFPCGRVSVSQTSKLTR chain 2: VVGGEDAKPGQFPWQVVLNGKVDAFCGGSIVNEKWIVTAAHCVETGVKITVVAGEHNIEETEHTEQKRNVIRIIPHHNYNAAINKYNHDIALLELDEPLVLNSYVTPICIADKEYTNIFLKFGSGYVSGWGRVFHKGYSALVLQYLRVPLVDRATCLESTKFRIYNNMFCAGFHEGGRDSCQGDSGGPHVTEVEGTSFLTGIISWGEECAMKGKYGIYTKVSEYVNWIKEKTKLT | – | 0.0443 µM | – |
| FIXa Y155F/R318Y/R338E/T343R/R403E (protein) chain 1: YNSGKLEEFVQGNLERECMEEKCSFEEAREVFENTERTTEFWKQYVDGDQCESNPCLNGGSCKDDINSYECWCPFGFEGKNCELDVTCNIKNGRCEQFCKNSADNKVVCSCTEGYRLAENQKSCEPAVPFPCGRVSVSQTSKLTR chain 2: VVGGEDAKPGQFPWQVVLNGKVDAFCGGSIVNEKWIVTAAHCVETGVKITVVAGEHNIEETEHTEQKRNVIRIIPHHNYNAAINKYNHDIALLELDEPLVLNSYVTPICIADKEYTNIFLKFGSGYVSGWGRVFHKGYSALVLQYLRVPLVDRATCLESTKFRIYNNMFCAGFHEGGRDSCQGDSGGPHVTEVEGTSFLTGIISWGEECAMKGKYGIYTKVSEYVNWIKEKTKLT | – | 0.034 µM | – |
| FIXa R318Y/R338E/T343R/E410N (protein) chain 1: YNSGKLEEFVQGNLERECMEEKCSFEEAREVFENTERTTEFWKQYVDGDQCESNPCLNGGSCKDDINSYECWCPFGFEGKNCELDVTCNIKNGRCEQFCKNSADNKVVCSCTEGYRLAENQKSCEPAVPFPCGRVSVSQTSKLTR chain 2: VVGGEDAKPGQFPWQVVLNGKVDAFCGGSIVNEKWIVTAAHCVETGVKITVVAGEHNIEETEHTEQKRNVIRIIPHHNYNAAINKYNHDIALLELDEPLVLNSYVTPICIADKEYTNIFLKFGSGYVSGWGRVFHKGYSALVLQYLRVPLVDRATCLESTKFRIYNNMFCAGFHEGGRDSCQGDSGGPHVTEVEGTSFLTGIISWGEECAMKGKYGIYTKVSRYVNWIKNKTKLT | – | 0.0164 µM | – |
